Laboratory results published in article PMC7367873, “Dissecting the sequence determinants for dephosphorylation by the catalytic subunits of phosphatases PP1 and PP2A” (Nature Communications, 2020).

Columns and labels:
[1] = system: GFP-14-3-3β and its binding proteins; assay: GFP-14-3-3β co-IP with LC-MS/MS label-free quantification, untreated versus PP1c-treated; design: species or system human; conditions: pairwise comparison PP1 vs untreated
GFP-14-3-3β = GFP-14-3-3β co-IP with LC-MS/MS, untreated GFP-14-3-3β versus GFP control (14-3-3 interactome); format: binding, human; conditions: pairwise comparison untreated vs GFP
[2] = log2 difference, label-free quantification, 3 replicates each

Difference (log2), PP1 vs untreated [1, 2]	Difference (log2), PP1 vs untreated [1] [log2]	Molecule	Difference (log2), untreated vs GFP (GFP-14-3-3β; [2])	Difference (log2), untreated vs GFP (GFP-14-3-3β) [log2]
	0.06363	SOAT1 (protein, UniProt P35610 1-550, looked up) Sterol O-acyltransferase 1: MVGEEKMSLRNRLSKSRENPEEDEDQRNPAKESLETPSNGRIDIKQLIAKKIKLTAEAEELKPFFMKEVGSHFDDFVTNLIEKSASLDNGGCALTTFSVLEGEKNNHRAKDLRAPPEQGKIFIARRSLLDELLEVDHIRTIYHMFIALLILFILSTLVVDYIDEGRLVLEFSLLSYAFGKFPTVVWTWWIMFLSTFSVPYFLFQHWATGYSKSSHPLIRSLFHGFLFMIFQIGVLGFGPTYVVLAYTLPPASRFIIIFEQIRFVMKAHSFVRENVPRVLNSAKEKSSTVPIPTVNQYLYFLFAPTLIYRDSYPRNPTVRWGYVAMKFAQVFGCFFYVYYIFERLCAPLFRNIKQEPFSARVLVLCVFNSILPGVLILFLTFFAFLHCWLNAFAEMLRFGDRMFYKDWWNSTSYSNYYRTWNVVVHDWLYYYAYKDFLWFFSKRFKSAAMLAVFAVSAVVHEYALAVCLSFFYPVLFVLFMFFGMAFNFIVNDSRKKPIWNVLMWTSLFLGNGVLLCFYSQEWYARQHCPLKNPTFLDYVRPRSWTCRYVF		0.443
	0.01439	TSR1 (protein, UniProt Q2NL82 1-804, looked up) Pre-rRNA-processing protein …: MAAHRPGPLKQQNKAHKGGRHRGRGSAQRDGKGRLALKTLSKKVRKELSRVDQRHRASQLRKQKKEAVLAEKRQLGGKDGPPHQVLVVPLHSRISLPEAMQLLQDRDTGTVHLNELGNTQNFMLLCPRLKHRWFFTSARPGDLHVVLDMAKVADTILFLLDPLEGWDSTGDYCLSCLFAQGLPTYTLAVQGISGLPLKKQIDTRKKLSKAVEKRFPHDKLLLLDTQQEAGMLLRQLANQKQQHLAFRDRRAYLFAHAVDFVPSEENNLVGTLKISGYVRGQTLNVNRLLHIVGYGDFQMKQIDAPGDPFPLNPRGIKPQKDPDMAMEICATDAVDDMEEGLKVLMKADPGRQESLQAEVIPDPMEGEQTWPTEEELSEAKDFLKESSKVVKKVPKGTSSYQAEWILDGGSQSGGEGDEYEYDDMEHEDFMEEESQDESSEEEEEYETMTIGESVHDDLYDKKVDEEAEAKMLEKYKQERLEEMFPDEVDTPRDVAARIRFQKYRGLKSFRTSPWDPKENLPQDYARIFQFQNFTNTRKSIFKEVEEKEVEGAEVGWYVTLHVSEVPVSVVECFRQGTPLIAFSLLPHEQKMSVLNMVVRRDPGNTEPVKAKEELIFHCGFRRFRASPLFSQHTAADKHKLQRFLTADMALVATVYAPITFPPASVLLFKQKSNGMHSLIATGHLMSVDPDRMVIKRVVLSGHPFKIFTKMAVVRYMFFNREDVLWFKPVELRTKWGRRGHIKEPLGTHGHMKCSFDGKLKSQDTVLMNLYKRVFPKWTYDPYVPEPVPWLKSEISSTVPQGGME		1.267

Continued, molecule first:

Molecule	Difference (log2), PP1 vs untreated [1, 2]	Difference (log2), PP1 vs untreated [1] [log2]	Difference (log2), untreated vs GFP (GFP-14-3-3β; [2])	Difference (log2), untreated vs GFP (GFP-14-3-3β) [log2]
NAP1L1 (protein, UniProt P55209 2-388, looked up) Nucleosome assembly protein …: ADIDNKEQSELDQDLDDVEEVEEEETGEETKLKARQLTVQMMQNPQILAALQERLDGLVETPTGYIESLPRVVKRRVNALKNLQVKCAQIEAKFYEEVHDLERKYAVLYQPLFDKRFEIINAIYEPTEEECEWKPDEEDEISEELKEKAKIEDEKKDEEKEDPKGIPEFWLTVFKNVDLLSDMVQEHDEPILKHLKDIKVKFSDAGQPMSFVLEFHFEPNEYFTNEVLTKTYRMRSEPDDSDPFSFDGPEIMGCTGCQIDWKKGKNVTLKTIKKKQKHKGRGTVRTVTKTVSNDSFFNFFAPPEVPESGDLDDDAEAILAADFEIGHFLRERIIPRSVLYFTGEAIEDDDDDYDEEGEEADEEGEEEGDEENDPDYDPKKDQNPAEC	1.883		-0.3295	
HDLBP (protein, UniProt Q00341 2-1268, looked up) Vigilin: SSVAVLTQESFAEHRSGLVPQQIKVATLNSEEESDPPTYKDAFPPLPEKAACLESAQEPAGAWGNKIRPIKASVITQVFHVPLEERKYKDMNQFGEGEQAKICLEIMQRTGAHLELSLAKDQGLSIMVSGKLDAVMKARKDIVARLQTQASATVAIPKEHHRFVIGKNGEKLQDLELKTATKIQIPRPDDPSNQIKITGTKEGIEKARHEVLLISAEQDKRAVERLEVEKAFHPFIAGPYNRLVGEIMQETGTRINIPPPSVNRTEIVFTGEKEQLAQAVARIKKIYEEKKKKTTTIAVEVKKSQHKYVIGPKGNSLQEILERTGVSVEIPPSDSISETVILRGEPEKLGQALTEVYAKANSFTVSSVAAPSWLHRFIIGKKGQNLAKITQQMPKVHIEFTEGEDKITLEGPTEDVNVAQEQIEGMVKDLINRMDYVEINIDHKFHRHLIGKSGANINRIKDQYKVSVRIPPDSEKSNLIRIEGDPQGVQQAKRELLELASRMENERTKDLIIEQRFHRTIIGQKGERIREIRDKFPEVIINFPDPAQKSDIVQLRGPKNEVEKCTKYMQKMVADLVENSYSISVPIFKQFHKNIIGKGGANIKKIREESNTKIDLPAENSNSETIIITGKRANCEAARSRILSIQKDLANIAEVEVSIPAKLHNSLIGTKGRLIRSIMEECGGVHIHFPVEGSGSDTVVIRGPSSDVEKAKKQLLHLAEEKQTKSFTVDIRAKPEYHKFLIGKGGGKIRKVRDSTGARVIFPAAEDKDQDLITIIGKEDAVREAQKELEALIQNLDNVVEDSMLVDPKHHRHFVIRRGQVLREIAEEYGGVMVSFPRSGTQSDKVTLKGAKDCVEAAKKRIQEIIEDLEAQVTLECAIPQKFHRSVMGPKGSRIQQITRDFSVQIKFPDREENAVHSTEPVVQENGDEAGEGREAKDCDPGSPRRCDIIIISGRKEKCEAAKEALEALVPVTIEVEVPFDLHRYVIGQKGSGIRKMMDEFEVNIHVPAPELQSDIIAITGLAANLDRAKAGLLERVKELQAEQEDRALRSFKLSVTVDPKYHPKIIGRKGAVITQIRLEHDVNIQFPDKDDGNQPQDQITITGYEKNTEAARDAILRIVGELEQMVSEDVPLDHRVHARIIGARGKAIRKIMDEFKVDIRFPQSGAPDPNCVTVTGLPENVEEAIDHILNLEEEYLADVVDSEALQVYMKPPAHEEAKAPSRGFVVRDAPWTASSSEKAPDMSSSEEFPSFGAQVAPKTLPWGPKR		0.06756		0.159
LYPD3 (protein, UniProt O95274 31-326, looked up) Ly6/PLAUR domain-containing …: LECYSCVQKADDGCSPNKMKTVKCAPGVDVCTEAVGAVETIHGQFSLAVRGCGSGLPGKNDRGLDLHGLLAFIQLQQCAQDRCNAKLNLTSRALDPAGNESAYPPNGVECYSCVGLSREACQGTSPPVVSCYNASDHVYKGCFDGNVTLTAANVTVSLPVRGCVQDEFCTRDGVTGPGFTLSGSCCQGSRCNSDLRNKTYFSPRIPPLVRLPPPEPTTVASTTSVTTSTSAPVRPTSTTKPMPAPTSQTPRQGVEHEASRDEEPRLTGGAAGHQDRSNSGQYPAKGGPQQPHNKGC		0.03143		-0.7562
EEF1A1P5;EEF1A1 (protein, UniProt P68104 2-462, looked up) Elongation factor 1-alpha 1: GKEKTHINIVVIGHVDSGKSTTTGHLIYKCGGIDKRTIEKFEKEAAEMGKGSFKYAWVLDKLKAERERGITIDISLWKFETSKYYVTIIDAPGHRDFIKNMITGTSQADCAVLIVAAGVGEFEAGISKNGQTREHALLAYTLGVKQLIVGVNKMDSTEPPYSQKRYEEIVKEVSTYIKKIGYNPDTVAFVPISGWNGDNMLEPSANMPWFKGWKVTRKDGNASGTTLLEALDCILPPTRPTDKPLRLPLQDVYKIGGIGTVPVGRVETGVLKPGMVVTFAPVNVTTEVKSVEMHHEALSEALPGDNVGFNVKNVSVKDVRRGNVAGDSKNDPPMEAAGFTAQVIILNHPGQISAGYAPVLDCHTAHIACKFAELKEKIDRRSGKKLEDGPKFLKSGDAAIVDMVPGKPMCVESFSDYPPLGRFAVRDMRQTVAVGVIKAVDKKAAGAGKVTKSAQKAQKAK		0.02225		-0.241
